The source of these data is US20230285635.

Data set [1] concerns the target CD31 (PECAM-1) (UniProt P16284). In words: cell_activity. The note with it: positions printed as 6 (n in SEQ ID NO: 1) are modified bases, identity not stated in the supplied text; aptamer-coated microfluidic device on ECM, shear stress 20 dynes/cm2; antibody coating 51%; more than 80% attached at 10 dynes/cm2.
Data set [2] shares this target. Description: flow. The note with it: positions printed as 6 (n in SEQ ID NO: 1) are modified bases, identity not stated in the supplied text; at 600 and 800 nM aptamer, saturated at 600 nM; CD31-negative HepG2 and MSCs only about 2% bound.

For “TCAGCCGCCAGCCAGTTCGTAGAGGAGGTACGTAATGTCTGGGTATACCCCGATAATTGACCAGAGCACCACAGAG [anti-CD31 aptamer]”, in the data set with CD31 (PECAM-1) [1], the activity (% HUVECs attached) is 61.5. The sequence also returned a binding signal (% of HUVECs bound) in the data set with CD31 (PECAM-1) [2] of 99.
